Reference: paper PMC8786784
“And” between values parts separate entries of the source, which are not always exact repeats. Identical values can stand only once.

Target: amyloid-β (Aβ) peptide (human (endogenous in brain tissue)) (UniProt P05067)
Experiment: 2D-PAGE immunoblot; Aβ immunoprecipitated (4G8 and 6E10) from tris- and FA-soluble fractions of human frontal cortex, eluted in rehydration buffer (8.3 M urea, 0.5% CHAPS, 20 mM DTT), IEF pH 3-10, 4-12% Bis-Tris gel, blot with 6E10; oligomer size assigned from the band's mass

- stoichiometry N: 5 and 6
Substance: amyloid-β (Aβ) peptide (from UniProt P05067 672-713) (peptide; other documents disagree on this pair)
